Measurements from patent US20160237160A1 (Bayer, published 2016).

Columns and labels:
[1] = molecular target: T1, TPP-599 (HUMAN-TNFRSF12Aaa28-80-hIgG1-Fc) (human); assay: ELISA, 2.5 nM biotinylated TWEAKR-Fc coated, soluble Fab, anti-c-Myc detection
T1 construct: dimeric; also called human TWEAKR Fc; TWEAKR-Fc

[2] = molecular target: TPP-1988 (hTNFRSF12Aaa28-80-M50A-hIgG1-Fc) (human); assay: ELISA, TWEAKR-Fc coated 62 ng/ml, biotin-IgG titrated; + means IC50 1 to 150 pM;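 note: biotinylated IgG binding to immobilized TWEAKR-Fc muteins, detected with Streptavidin-HRP and Amplex Red, IC50 derived from fitted dose-response curves of twofold serial dilutions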
Method: To collect dose-response data, the different TWEAKR-Fc muteins were coated with a low concentration (62 ng/ml) in a 384-well Maxisorb ELISA plate and a serial 2fold dilution of biotinylated IgG starting with a concentration of 100 nM was used as soluble binding partner. Detection was done with Streptavidin-HRP and Amplex Red.
The dose-response data were fitted and IC50s determined.

[3] = molecular target: T2, TPP-2614 (TweakR-ECD-34-68-hIgGFc-His-D47A) (human); assay: ELISA, PDL-192(TPP-1104) coated at 1 µg/ml, eight-fold diluted HEK293 supernatant with the TWEAKR(34-68)-Fc mutein, anti-HIS-HRP, Amplex Red
T2 construct: also called D47A TWEAKR mutein
Method: S37A, R38A, S40A, W42A, S43A, D45A, D47A, K48A, D51A, S54A, R56A, R58A, P59A, H60A, S61A, D62A, F63A and L65A muteins were expressed in HEK293 cells (black diamonds).
These TWEAKR(34-68)-Fc muteins were expressed in HEK293 cells. To collect dose-response data, IgGs were coated at a concentration of 1 μg/ml in a 384-well Maxisorp ELISA plate and a serial 2fold dilution of the TWEAKR mutein containing supernatant was used as soluble binding partner. Detection was done with anti-HIS-HRP and Amplex Red.

B1: TPP-883 Fab variant G97F of CDR-L3 (Fab, V domains shown)
VH: EVQLLESGGGLVQPGGSLRLSCAASGFTFSPYPMMWVRQAPGKGLEWVSYISPSGGKTHYADSVKGRFTISRDNSKNTLYLQMNSLRAEDTAVYYCARGGDGYFDYFDYWGQGTLVTVSS
VL: DIQMTQSPATLSASVGDRVTITCRASQSISSYLNWYQQKPGKAPKLLIYAASSLQSGVPSRFSGSGSGTDFTLTISSLQPEDFATYYCQQSYSSPFITFGPGTKVEIK
binding result [1]: binds

B2: TPP-883 Fab variant S94T of CDR-L3 (Fab, V domains shown)
VH: EVQLLESGGGLVQPGGSLRLSCAASGFTFSPYPMMWVRQAPGKGLEWVSYISPSGGKTHYADSVKGRFTISRDNSKNTLYLQMNSLRAEDTAVYYCARGGDGYFDYFDYWGQGTLVTVSS
VL: DIQMTQSPATLSASVGDRVTITCRASQSISSYLNWYQQKPGKAPKLLIYAASSLQSGVPSRFSGSGSGTDFTLTISSLQPEDFATYYCQQSYTSPGITFGPGTKVEIK
binding result [1]: binds

B3: PDL-192(TPP-1104) (antibody, human IgG1, kappa, V domains shown)
VH: QVELVESGGGLVQPGGSLRLSCAASGFTFSSYWMSWVRQAPGKGLEWVAEIRLKSDNYATHYAESVKGRFTISRDDSKNSLYLQMNSLRAEDTAVYYCTGYYADAMDYWGQGTLVTVSS
VL: DIQMTQSPSSLSASVGDRVTITCRASQSVSTSSYSYMHWYQQKPGKAPKLLIKYASNLESGVPSRFSGSGSGTDFTLTISSLQPEDFATYYCQHSWEIPYTFGGGTKVEIKR
notes: Human IgG1; variable domains from WO2009/020933 with constant region added
binding result [2]: binds
binding result [3]: binds
